Measured values from paper PMC12455949 (Journal of Virology, 2025).
Where “and” joins values, the source holds several entries; their conditions need not be identical. Identical values can stand only once.

B1: mAb #1664 (antibody, V domains shown)
VH: EVQVMQSGAEARMTGATVKISCKASGYTFSDYFLHWVKQAPGKGLEWMGLVDVDNGEVRYAEKFQGRVTITADTSTETAYLEMTTVTSGDTAVYYCASTTPRGGNPSVYNYFFVDVWGKGTTVTVSS
VL: QPVLTQSSSASASLGSSVKLTCTLSSGHDNYIIAWHQQQPGKAPRYLMQVGAGGTYNKGSGVPHRFSGSSSGADRYLTISNLQSDDEADYYCETWDSKTVFGGGTTLTVL
notes: copies: 2 + 2
B2: mAb #1664 (antibody, V domains shown)
VH: EVQVMQSGAEARMTGATVKISCKASGYTFSDYFLHWVKQAPGKGLEWMGLVDVDNGEVRYAEKFQGRVTITADTSTETAYLEMTTVTSGDTAVYYCASTTPRGGNPSVYNYFFVDVWGKGTTVTVSS
VL: QPVLTQSSSASASLGSSVKLTCTLSSGHDNYIIAWHQQQPGKAPRYLMQVGAGGTYNKGSGVPHRFSGSSSGADRYLTISNLQSDDEADYYCETWDSKTVFGGGTTLTVL
B3: mAb TJ5-1 (antibody, V domains shown)
VH: EVQLVQSGAEVKKPGASVKVSCKASGYTFTGFYLHWVRQAPGQGLEWMGWINPHSGDTDFAQKFQGKVTMTRDTSSNTVYMDVNRLTSDDTAVYYCVKNDIVLGMGVWGQGTTVIVSS
VL: QSVLTQPPSVSGAPGQRVTISCTGSSSNIGAGYNVYWFQQLPPTAPKLLNYGDNNRPSGVPDRFSASKSGTSASLAITGLQAEDEAEYYCQSYDSSLNAYVFGTGTKVTVL
B4: mAb TJ5-1 (antibody, V domains shown)
VH: EVQLVQSGAEVKKPGASVKVSCKASGYTFTGFYLHWVRQAPGQGLEWMGWINPHSGDTDFAQKFQGKVTMTRDTSSNTVYMDVNRLTSDDTAVYYCVKNDIVLGMGVWGQGTTVIVSS
VL: QSVLTQPPSVSGAPGQRVTISCTGSSSNIGAGYNVYWFQQLPPTAPKLLNYGDNNRPSGVPDRFSASKSGTSASLAITGLQAEDEAEYYCQSYDSSLNAYVFGTGTKVTVL
B5: mAb TJ5-13 (antibody, V domains shown)
V domain 1: QVQLVQSGAEVKKPGSSVKVSCEASGDTFTTYSGINWVRQAPGQGLEWMGGVLPNFGSPNYAQRFQGRITITVDRSTSLVHMELTNLRSDDTAVYYCTETGAYNSVGYFPYFQFRGQGTLVSVSS
V domain 2: QSVLTQPPSVSGAPGQRVTISCTGSSSNIGADYDVHWYQQLPGTAPKLLIFGNNNRPSGVPDRFSGSKSGTSASLAITGLQAEDEADYYCQSFDKSLSGSFVFGTGTKVTGQ
B6: mAb TJ5-13 (antibody, V domains shown)
V domain 1: QVQLVQSGAEVKKPGSSVKVSCEASGDTFTTYSGINWVRQAPGQGLEWMGGVLPNFGSPNYAQRFQGRITITVDRSTSLVHMELTNLRSDDTAVYYCTETGAYNSVGYFPYFQFRGQGTLVSVSS
V domain 2: QSVLTQPPSVSGAPGQRVTISCTGSSSNIGADYDVHWYQQLPGTAPKLLIFGNNNRPSGVPDRFSGSKSGTSASLAITGLQAEDEADYYCQSFDKSLSGSFVFGTGTKVTGQ

Assays:
Assay in all cases: BLI
Conditions in all cases: both partners purified
[1] = target: COBRA HA J4, recombinant soluble (rHA) (Influenza A virus H3, designed COBRA J4)
[2] = target: A/Perth/16/2009 HA, recombinant soluble (rHA) (Influenza A virus A/Perth/16/2009 (H3N2), UniProt C6KNH7, strain)
[3] = target: A/Port Chalmers/1/1973 HA, recombinant soluble (rHA) (Influenza A virus A/Port …, UniProt Q1PUD9, strain)
[4] = target: COBRA HA NG2, recombinant soluble (rHA) (Influenza A virus H3, designed COBRA NG2)
[5] = target: A/Panama/2007/1999 HA, recombinant soluble (rHA) (Influenza A virus A/Panama/2007/1999 …, UniProt Q1K9M3, strain)
[6] = target: A/Texas/50/2012 HA, recombinant soluble (rHA) (Influenza A virus A/Texas/50/2012 (H3N2), UniProt R4L1D1, strain)
[7] = target: A/Switzerland/9715293/2013 HA, recombinant soluble (rHA) (Influenza A virus …, strain)
[8] = target: COBRA HA TJ2, recombinant soluble (rHA) (Influenza A virus H3, designed COBRA TJ2)
A/Victoria/361/2011 HA = A/Victoria/361/2011 HA (Influenza A virus A/Victoria/361/2011 …, UniProt A0A097PF39, strain)
[9] = target: A/Port Chalmers/1/1973 HA (Influenza A virus A/Port …, UniProt Q1PUD9, strain)
A/Perth/16/2009 HA = A/Perth/16/2009 HA (Influenza A virus A/Perth/16/2009 (H3N2), UniProt C6KNH7, strain)
[10] = target: A/Switzerland/9715293/2013 HA (Influenza A virus …, strain)
A/Texas/50/2012 HA = A/Texas/50/2012 HA (Influenza A virus A/Texas/50/2012 (H3N2), UniProt R4L1D1, strain)
A/Panama/2007/1999 HA = A/Panama/2007/1999 HA (Influenza A virus A/Panama/2007/1999 …, UniProt Q1K9M3, strain)
[11] = target: A/Victoria/361/2011 HA, recombinant soluble (rHA) (Influenza A virus A/Victoria/361/2011 …, UniProt A0A097PF39, strain)

Binder | Kd [1] | Kd [2] | binding result [3] | Kd [5] | Kd [7] | Kd (A/Victoria/361/2011 HA) | koff (A/Victoria/361/2011 HA) | kon (A/Victoria/361/2011 HA) | Kd (A/Perth/16/2009 HA) | koff (A/Perth/16/2009 HA) | kon (A/Perth/16/2009 HA) | Kd [10] | koff [10] | kon [10] | Kd (A/Texas/50/2012 HA) | koff (A/Texas/50/2012 HA) | kon (A/Texas/50/2012 HA) | Kd (A/Panama/2007/1999 HA) | koff (A/Panama/2007/1999 HA) | kon (A/Panama/2007/1999 HA) | other results
B1 | 12800 pM and 17700 pM | 420 pM and 200 pM | no binding (tested: 1350 nM) | 18200 pM and 14700 pM | 286000 pM and 222000 pM |  |  |  |  |  |  |  |  |  |  |  |  |  |  |  | Kd [4]: 135000 pM and 143000 pM; Kd [6]: 730 pM and 1130 pM; Kd [8]: 470 pM and 430 pM
B2 |  |  |  |  |  | 840 pM | 8.98e-05 s⁻¹ | 119000 M⁻¹ s⁻¹ | 310 pM | 3.36e-05 s⁻¹ | 108000 M⁻¹ s⁻¹ | 254000 pM | 0.00379 s⁻¹ | 15000 M⁻¹ s⁻¹ | 930 pM | 9.08e-05 s⁻¹ | 98300 M⁻¹ s⁻¹ | 16400 pM | 0.00179 s⁻¹ | 109000 M⁻¹ s⁻¹ | binding result [9]: no binding (tested: 100 nM rHA (exploratory assays))
B3 | 300 pM and 160 pM | 130 pM and 140 pM |  | 150 pM and 170 pM | 590 pM and 670 pM |  |  |  |  |  |  |  |  |  |  |  |  |  |  |  | Kd [3]: 7130 pM and 13100 pM; Kd [11]: 620 pM and 1100 pM; Kd [6]: 210 pM and 390 pM; Kd [8]: 3280 pM and 8010 pM
B4 |  |  |  |  |  | 860 pM | 0.000195 s⁻¹ | 228000 M⁻¹ s⁻¹ | 140 pM | 3.66e-05 s⁻¹ | 266000 M⁻¹ s⁻¹ | 630 pM | 0.00019 s⁻¹ | 303000 M⁻¹ s⁻¹ | 300 pM | 8.93e-05 s⁻¹ | 307000 M⁻¹ s⁻¹ | 160 pM | 4.97e-05 s⁻¹ | 315000 M⁻¹ s⁻¹ | 
B5 | 130 pM and 390 pM | 220 pM and 330 pM | no binding (tested: 1350 nM) | 1880 pM and 3480 pM | 1320 pM and 2090 pM |  |  |  |  |  |  |  |  |  |  |  |  |  |  |  | Kd [4]: 2340 pM and 6810 pM; Kd [11]: 390 pM and 800 pM
B6 |  |  |  |  |  | 590 pM | 0.000128 s⁻¹ | 218000 M⁻¹ s⁻¹ | 270 pM | 6.03e-05 s⁻¹ | 226000 M⁻¹ s⁻¹ | 1710 pM | 0.000166 s⁻¹ | 98600 M⁻¹ s⁻¹ | 420 pM | 9.53e-05 s⁻¹ | 257000 M⁻¹ s⁻¹ | 1140 pM | 0.000304 s⁻¹ | 114000 M⁻¹ s⁻¹ | binding result [9]: no binding (tested: 100 nM rHA (exploratory assays))
